In article PMC6640040 (Nature, 2016):

How the values were obtained:
Assay in all cases: pull-down
[1] = target: ClpP(6His)^TRAP (B. subtilis, UniProt P80244 1-197, Ser98Ala)
[2] = target: wild-type ClpP(6His) (B. subtilis, UniProt P80244 1-197)
[3] = target: T1, MecA (B. subtilis, UniProt P37958 1-218)
T1 sequence (looked up): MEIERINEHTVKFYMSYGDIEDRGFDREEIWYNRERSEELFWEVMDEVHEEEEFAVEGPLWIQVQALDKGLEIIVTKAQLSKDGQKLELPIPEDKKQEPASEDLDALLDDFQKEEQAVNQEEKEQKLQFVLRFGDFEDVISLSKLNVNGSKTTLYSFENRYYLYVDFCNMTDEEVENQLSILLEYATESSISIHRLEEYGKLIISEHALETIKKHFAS

Binder | binding result [1] | binding result [2] | binding result [3]
endogenous ClpP (enzyme) not shown | binds | binds | –
ClpC^NTD(1–150) (domain or fragment, B. subtilis, UniProt P37571 1-150, looked up) MMFGRFTERAQKVLALAQEEALRLGHNNIGTEHILLGLVREGEGIAAKALQALGLGSEKIQKEVESLIGRGQEMSQTIHYTPRAKKVIELSMDEARKLGHSYVGTEHILLGLIREGEGVAARVLNNLGVSLNKARQQVLQLLGSNETGSS | – | – | binds
ClpC NTD^EA mutant (domain or fragment, B. subtilis, UniProt P37571 1-150, looked up) MMFGRFTERAQKVLALAQEEALRLGHNNIGTAHILLGLVREGEGIAAKALQALGLGSEKIQKEVESLIGRGQEMSQTIHYTPRAKKVIELSMDEARKLGHSYVGTAHILLGLIREGEGVAARVLNNLGVSLNKARQQVLQLLGSNETGSS | – | – | binds
